Source: the supplement of paper PMC7125110
± gives the standard error. This sample holds only a part of the variants without activity.

B1: glmS ribozyme (parent)
chain: AUAAAAGCGCCAGAACUACAGAAAUGUAGUUGACGAGGAGGAGGUUUAUCGAAUUUUCGGCGGAUGCCUCCAAA

Variants of: B1
Experiment: self-cleavage kobs at 2500 uM GlcN6P; higher = faster cleavage; RNA array
Conditions: with glucosamine-6-phosphate
How it was run: (§1)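 A hybridised Cy3 probe tracked barcoded ribozyme variants, transcribed in situ by E. coli RNA polymerase on sequenced MiSeq chips, at 37 °C. The variants received 40 μM to 10 mM glucosamine-6-phosphate in HEPES/KCl/Mg(OAc)2 buffer. kobs came from decay fits and kcat and KM from weighted Michaelis–Menten fits.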

Variant | self-cleavage kobs at 2500 uM GlcN6P
A12U A14U A33C C50U | < 1e-05 s⁻¹
C8U U54G A64U U65G | < 1e-05 s⁻¹
C10A G44U U49G U54C G60U C67U | < 1e-05 s⁻¹
C11U G29C U31A | < 1e-05 s⁻¹
U46A A52G G63U C67G | < 1e-05 s⁻¹
C11A A14G G40U | 5.01e-05 ± 1.9e-05 s⁻¹
A20C A48G | 0.000134 ± 2.6e-05 s⁻¹
G29A A36G G38U C50U | < 1e-05 s⁻¹
C11G G41U A48C C70G | < 1e-05 s⁻¹
G29C G44C C50U G66U | < 1e-05 s⁻¹
G7A G41C U45C U47C | < 1e-05 s⁻¹
C8U G13U G59U | < 1e-05 s⁻¹
G13A A33C A48C | < 1e-05 s⁻¹
A15U G32C A36C G40C | < 1e-05 s⁻¹
A15U U56G C70U | 0.000554 ± 0.00014 s⁻¹
G32C C50G U55A U56G U57C | 0.000162 ± 5.8e-05 s⁻¹
C16U G43A C67A U69A | 6.4e-05 ± 2.1e-05 s⁻¹
C34U G40C U56A G63A | < 1e-05 s⁻¹
G13U A53G C68U | 0.000212 ± 3.7e-05 s⁻¹
A36C U54A C61A C67A | 6.51e-05 ± 2.2e-05 s⁻¹
U54A A64G C70A | 0.000536 ± 0.00018 s⁻¹
C10U A36G G41U G59U C68A | < 1e-05 s⁻¹
G32C C50U C58G | < 1e-05 s⁻¹
G35U A42U A64U | < 1e-05 s⁻¹

Variant | self-cleavage kobs at 2500 uM GlcN6P
C8G C16A G43U G44U G62A | < 1e-05 s⁻¹
G7U C11U A12U G38C G43U U54A | < 1e-05 s⁻¹
U31C U56A C67U | 0.000427 ± 0.00012 s⁻¹
C16U A39U U54G | 0.00743 ± 0.0018 s⁻¹
G29U A39U C67G | 0.00033 ± 9.8e-05 s⁻¹
G29C A33U G62A A64U | < 1e-05 s⁻¹
C11A A52U U65C | < 1e-05 s⁻¹
G9A G13C A33C G38C C61U G63U G66C | < 1e-05 s⁻¹
G7U A14C C16A | < 1e-05 s⁻¹
G40A G43C G60C C67U | < 1e-05 s⁻¹
A36C A52G C61G | < 1e-05 s⁻¹
C10A C34G C68G | < 1e-05 s⁻¹
C16U A33G U69A C70G | 7.7e-05 ± 3.3e-05 s⁻¹
G29U G38C U56G | < 1e-05 s⁻¹
A42C A48G C50G C61A C70U | < 1e-05 s⁻¹
A14G A39U C67A | 0.0121 ± 0.003 s⁻¹
A36U G40U G41C | < 1e-05 s⁻¹
C34A A39U G41A U54A | < 1e-05 s⁻¹
A6C A15U G43A C71U | < 1e-05 s⁻¹
C11G A15C U45C C68G | < 1e-05 s⁻¹
A15G U57A C68A | 5.07e-05 ± 1.9e-05 s⁻¹
G7A A33C C58U U65G C70G | < 1e-05 s⁻¹
G38C C58U G66A | < 1e-05 s⁻¹
C16A G32U G43U C61G | < 1e-05 s⁻¹

Variant | self-cleavage kobs at 2500 uM GlcN6P
G32A G35A C61A G63A C70U | < 1e-05 s⁻¹
U30G G40C U46G | 4.32e-05 ± 1.4e-05 s⁻¹
A33C A53C C61G | < 1e-05 s⁻¹
A12U G35A A52C C58G C68G | < 1e-05 s⁻¹
U31C G35A G66U C71A | < 1e-05 s⁻¹
C10A G29C A42G U55C U56C C70U | < 1e-05 s⁻¹
G38C U49C U57A U65G C70G | < 1e-05 s⁻¹
C11U A12C G32U | < 1e-05 s⁻¹
G29A G43C G60C | < 1e-05 s⁻¹
C11G A12C G38U C50U | < 1e-05 s⁻¹
G32C G37C C50A G60C | < 1e-05 s⁻¹
A14G C16U A53U | 0.0165 ± 0.0044 s⁻¹
A15C G37A A39G | 0.000365 ± 0.00012 s⁻¹
A14U G32C C67A | 3.21e-05 ± 1.6e-05 s⁻¹
G13A A14U U56A | 0.000412 ± 0.0001 s⁻¹
G29U G32C U47C C67G | < 1e-05 s⁻¹
C16A C50G C67A | 0.00038 ± 0.00013 s⁻¹
A39C G60A C61A | < 1e-05 s⁻¹
A12U U31G U69A | 0.000111 ± 4.9e-05 s⁻¹
A6C C34U C50G | 0.000502 ± 0.00022 s⁻¹
G32A C58U C68G | 0.000103 ± 3.5e-05 s⁻¹
C8U C10A A39C | < 1e-05 s⁻¹
A48C G51A C70G | < 1e-05 s⁻¹
G32U U55G U56G | 0.000148 ± 4.3e-05 s⁻¹

Variant | self-cleavage kobs at 2500 uM GlcN6P
G40A A48U C58A G60A | < 1e-05 s⁻¹
G13C G35U A52C | < 1e-05 s⁻¹
G44C G62A C68G | < 1e-05 s⁻¹
G9A C10U U30A G44A | < 1e-05 s⁻¹
A15C U31C U45A G59U U65A | < 1e-05 s⁻¹
C34A G51C U54G | < 1e-05 s⁻¹
C8U C11G G13C | < 1e-05 s⁻¹
C10U A33C A36U U54A | < 1e-05 s⁻¹
G37A A42U A52G C71A | < 1e-05 s⁻¹
C16U G41C G44C G59C | < 1e-05 s⁻¹
C34G G35A U49C | < 1e-05 s⁻¹
C10G G43U U46C | < 1e-05 s⁻¹
A14U C16G U65A | 5.56e-05 ± 1.9e-05 s⁻¹
G40A U45C A53C | 3.19e-05 ± 1.5e-05 s⁻¹
C10U A36U G40U | < 1e-05 s⁻¹
A6U G37C C68U | < 1e-05 s⁻¹
U30C G38U A42C | < 1e-05 s⁻¹
A42U U47G U69A | 0.0115 ± 0.0021 s⁻¹
C16U U45G U54G | 0.0032 ± 0.001 s⁻¹
A12G A39U U49G U55G | < 1e-05 s⁻¹
U30A G43U C61A C71U | < 1e-05 s⁻¹
A6U C16G G29U G43C U47G U54C | < 1e-05 s⁻¹
G7U A52U U55C | < 1e-05 s⁻¹
C16A U55A G59C C67U C70G | 9.74e-05 ± 3.6e-05 s⁻¹

Variant | self-cleavage kobs at 2500 uM GlcN6P
C16A U31C C70A | < 1e-05 s⁻¹
G29C U31G | < 1e-05 s⁻¹
A15G U47G U57A C71G | 5.79e-05 ± 2.3e-05 s⁻¹
G13U G29U U54G | 8.58e-05 ± 2.4e-05 s⁻¹
C11U A12G U56C | 0.000115 ± 2.6e-05 s⁻¹
G9C U45G C50U G59U | < 1e-05 s⁻¹
C8G A12G G51U C58U C67A C68U | 0.000214 ± 7.9e-05 s⁻¹
C8A G29U C68G | < 1e-05 s⁻¹
G43C G66U C67A | 0.000168 ± 5.2e-05 s⁻¹
G43U G63U C68G | < 1e-05 s⁻¹
A48U A53U U69C | 0.000134 ± 3.4e-05 s⁻¹
A14C G29C U30C A52U U65A | < 1e-05 s⁻¹
G7U G13A G38U A52C A53C | < 1e-05 s⁻¹
G13A U30G U56A | 7.43e-05 ± 2.5e-05 s⁻¹
A12C U31A U47C C67U | 5.13e-05 ± 2.1e-05 s⁻¹
C11U U55A C58G | 5.84e-05 ± 1.6e-05 s⁻¹
C34G G59A | < 1e-05 s⁻¹
G29C C50U C68A | 7.07e-05 ± 2.7e-05 s⁻¹
G13U A42U C50U | < 1e-05 s⁻¹
G32C G51U U56C | < 1e-05 s⁻¹
A6U G37A U49C U54A | < 1e-05 s⁻¹
G29A C50G U55A | 0.000211 ± 8.8e-05 s⁻¹
A15C U45C C50G C68U | < 1e-05 s⁻¹
C8U U55G C61U C68A | < 1e-05 s⁻¹

Variant | self-cleavage kobs at 2500 uM GlcN6P
C8A A39C G59U A64C | < 1e-05 s⁻¹
C34A G37U U46G U65G | < 1e-05 s⁻¹
C34U U47A G59U A64C C70U | < 1e-05 s⁻¹
A33G U56G G59C | < 1e-05 s⁻¹
C10A G13U U56C U69G | < 1e-05 s⁻¹
A12G A36C G62U | < 1e-05 s⁻¹
G9C C16G A39G | < 1e-05 s⁻¹
G35A C50A U57G | < 1e-05 s⁻¹
G32C A48U C68U | < 1e-05 s⁻¹
A15C U30A A33C G41U C50U C68A C70G | < 1e-05 s⁻¹
G29U G37C U46G | < 1e-05 s⁻¹
G7U G41A U47G C71G | < 1e-05 s⁻¹
G29C U54G C68A C71G | 9.33e-05 ± 4.3e-05 s⁻¹
A42G C61A U65C | < 1e-05 s⁻¹
A52U U55C A64G | 4.16e-05 ± 1.5e-05 s⁻¹
A6C A33U G37C A42U A48C U56A G59U C68G | < 1e-05 s⁻¹
A36G U45G C67A | < 1e-05 s⁻¹
U45G U46A G66U | 0.000166 ± 3.9e-05 s⁻¹
G38A G40A G44U G60C | < 1e-05 s⁻¹
C11A U65G C70G C71A | 0.000187 ± 6.3e-05 s⁻¹
A14U U47G C68U | 0.000197 ± 3.4e-05 s⁻¹
C8U G35A G63U | < 1e-05 s⁻¹
A6C A14C G32A G38U | < 1e-05 s⁻¹
G7A G44U A48G | < 1e-05 s⁻¹

Variant | self-cleavage kobs at 2500 uM GlcN6P
A36C G44U C67U | < 1e-05 s⁻¹
A14C A48G C70U | 5.88e-05 ± 2.6e-05 s⁻¹
G32U A42C A53C U55A | < 1e-05 s⁻¹
C34U G41A A52U | < 1e-05 s⁻¹
C8G A14G G44C U54A C71U | < 1e-05 s⁻¹
A14C C16A A42G | 5.08e-05 ± 2e-05 s⁻¹
A14G C58U G66U C67G | 7.46e-05 ± 3.2e-05 s⁻¹
C16A G41C C70U | 5.88e-05 ± 1.8e-05 s⁻¹
C16U U31G G41C C67U | < 1e-05 s⁻¹
A14C A15G G62C C67A | < 1e-05 s⁻¹
U47C C61G | < 1e-05 s⁻¹
A6U A12C G51A | < 1e-05 s⁻¹
A12U A42G A64U | 6.81e-05 ± 2.1e-05 s⁻¹
A14G A48G C71U | 0.000156 ± 5.8e-05 s⁻¹
A15C G37U A39G | < 1e-05 s⁻¹
C8G A33G A42G U55G | < 1e-05 s⁻¹
A12G G41A C50A | < 1e-05 s⁻¹
G32A A53U U56A C71U | 4.22e-05 ± 1e-05 s⁻¹

Variants of: B1
Experiment: self-cleavage kobs at 10000 uM GlcN6P; higher = faster cleavage; RNA array
Conditions: with glucosamine-6-phosphate
How it was run: as §1

Variant | self-cleavage kobs at 10000 uM GlcN6P
U31C U56A C67U | 0.000671 ± 0.00015 s⁻¹
G40A G43C G60C C67U | < 1e-05 s⁻¹
C10A G29C A42G U55C U56C C70U | < 1e-05 s⁻¹
A14U G32C C67A | 8.69e-05 ± 2.8e-05 s⁻¹
G13A A14U U56A | 0.000631 ± 0.00023 s⁻¹
G32U U55G U56G | 0.000376 ± 8.4e-05 s⁻¹
A15C U31C U45A G59U U65A | < 1e-05 s⁻¹
A6U G37C C68U | < 1e-05 s⁻¹
G7U A52U U55C | < 1e-05 s⁻¹
C8A G29U C68G | < 1e-05 s⁻¹
G7U G13A G38U A52C A53C | < 1e-05 s⁻¹
C34G G59A | < 1e-05 s⁻¹
G13U A42U C50U | < 1e-05 s⁻¹
U47C C61G | < 1e-05 s⁻¹
